This is an account of results in patent US20220227882A1 (TRUSTEES OF TUFTS COLLEGE, published 2022).

Assay [1] addresses T1, Full-length human ADAM8 on cells (HEK293-ADAM8 stable or transfected cells); also endogenous ADAM8 of breast … (human, UniProt P78325 17-824).
T1 construct: On cells the proform, the active form and the remnant form can all be present; also called native ADAM8; HEK293-A8
T1 sequence: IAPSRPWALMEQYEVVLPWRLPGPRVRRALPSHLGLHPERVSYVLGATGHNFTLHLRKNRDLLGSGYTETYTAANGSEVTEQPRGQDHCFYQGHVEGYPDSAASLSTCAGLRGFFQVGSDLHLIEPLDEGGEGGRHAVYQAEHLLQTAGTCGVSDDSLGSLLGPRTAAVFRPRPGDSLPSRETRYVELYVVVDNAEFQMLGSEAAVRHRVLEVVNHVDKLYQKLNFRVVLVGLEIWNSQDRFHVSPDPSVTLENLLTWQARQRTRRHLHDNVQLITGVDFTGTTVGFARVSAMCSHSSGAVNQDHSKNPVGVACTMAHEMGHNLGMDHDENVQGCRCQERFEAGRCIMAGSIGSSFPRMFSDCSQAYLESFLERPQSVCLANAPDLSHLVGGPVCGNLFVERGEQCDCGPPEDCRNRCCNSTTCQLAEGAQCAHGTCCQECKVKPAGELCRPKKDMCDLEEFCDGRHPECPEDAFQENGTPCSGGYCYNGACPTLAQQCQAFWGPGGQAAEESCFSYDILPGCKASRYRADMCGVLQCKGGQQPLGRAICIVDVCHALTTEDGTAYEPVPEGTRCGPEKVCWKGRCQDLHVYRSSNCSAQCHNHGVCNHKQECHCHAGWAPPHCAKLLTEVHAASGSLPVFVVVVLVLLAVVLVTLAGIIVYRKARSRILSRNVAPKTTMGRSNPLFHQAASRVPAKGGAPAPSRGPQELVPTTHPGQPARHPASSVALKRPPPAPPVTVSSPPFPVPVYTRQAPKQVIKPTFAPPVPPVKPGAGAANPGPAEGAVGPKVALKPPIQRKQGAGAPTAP
The assay can be described thus: FACS, HEK293-ADAM8 cells, antibody 10 µg/ml.

Assay [2] concerns the target T2, Recombinant human ADAM8 (rHuADAM8) ectodomain protein (aa 17-497), ACRO Biosystems AD8-H5223 (human, UniProt P78325 17-497).
T2 construct: Bought protein made in HEK293 cells; The protein clips off its own prodomain (aa 17-191); also called rhADAM8; immunogen
T2 sequence: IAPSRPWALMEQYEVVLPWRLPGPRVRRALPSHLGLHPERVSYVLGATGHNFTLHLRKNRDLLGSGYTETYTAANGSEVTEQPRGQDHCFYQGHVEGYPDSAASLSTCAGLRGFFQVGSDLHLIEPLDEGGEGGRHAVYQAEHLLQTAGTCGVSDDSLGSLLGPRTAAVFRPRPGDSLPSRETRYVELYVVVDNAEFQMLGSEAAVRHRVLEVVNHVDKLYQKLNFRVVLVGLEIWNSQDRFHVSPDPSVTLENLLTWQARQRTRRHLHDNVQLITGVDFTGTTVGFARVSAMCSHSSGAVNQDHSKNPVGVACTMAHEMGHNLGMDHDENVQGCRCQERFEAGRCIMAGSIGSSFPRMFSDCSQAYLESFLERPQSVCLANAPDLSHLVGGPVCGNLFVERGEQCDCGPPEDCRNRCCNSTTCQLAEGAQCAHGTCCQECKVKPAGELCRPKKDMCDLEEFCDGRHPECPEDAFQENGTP
The assay can be described thus: ELISA, coated recombinant ADAM8. For orientation: In an ELISA, binding on a coated surface is turned into a signal by an enzyme label.

Assay [3] has as its target T1, Full-length human ADAM8 on cells …. The assay can be described thus: FACS, HEK293-ADAM8 cells, antibody 0.1 µg/ml. On the technique in general: Flow cytometry measures light scatter and fluorescence of single cells or particles in a stream.
For assay [4], the target named is T3, Recombinant human ADAM15 (Sino Biological, 10517-H08H) (human, UniProt Q13444 18-696).
T3 sequence (looked up): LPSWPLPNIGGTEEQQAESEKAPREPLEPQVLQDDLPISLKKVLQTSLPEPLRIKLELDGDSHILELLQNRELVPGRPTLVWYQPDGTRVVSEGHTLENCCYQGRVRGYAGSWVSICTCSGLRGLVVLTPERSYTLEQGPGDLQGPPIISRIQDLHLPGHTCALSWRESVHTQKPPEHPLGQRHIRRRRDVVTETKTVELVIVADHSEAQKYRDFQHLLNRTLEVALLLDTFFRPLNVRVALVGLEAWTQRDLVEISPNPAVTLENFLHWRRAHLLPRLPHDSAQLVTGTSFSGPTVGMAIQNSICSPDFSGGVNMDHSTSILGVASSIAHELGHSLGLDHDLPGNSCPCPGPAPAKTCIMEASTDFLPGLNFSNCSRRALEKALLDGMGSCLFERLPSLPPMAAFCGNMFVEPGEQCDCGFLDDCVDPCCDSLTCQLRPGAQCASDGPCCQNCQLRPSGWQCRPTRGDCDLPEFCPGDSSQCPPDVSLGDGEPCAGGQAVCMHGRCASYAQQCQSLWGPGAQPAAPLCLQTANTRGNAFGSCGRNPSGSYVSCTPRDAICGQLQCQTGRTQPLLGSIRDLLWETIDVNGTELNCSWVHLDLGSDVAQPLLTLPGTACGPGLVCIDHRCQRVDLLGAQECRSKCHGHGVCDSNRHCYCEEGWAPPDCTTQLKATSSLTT
The assay can be described thus: ELISA, coated recombinant ADAM15.

Assay [5] concerns the target T4, Recombinant human ADAM12 (Acro Biosystems, AD2-H5228) (human, UniProt O43184 208-708).
T4 sequence (looked up): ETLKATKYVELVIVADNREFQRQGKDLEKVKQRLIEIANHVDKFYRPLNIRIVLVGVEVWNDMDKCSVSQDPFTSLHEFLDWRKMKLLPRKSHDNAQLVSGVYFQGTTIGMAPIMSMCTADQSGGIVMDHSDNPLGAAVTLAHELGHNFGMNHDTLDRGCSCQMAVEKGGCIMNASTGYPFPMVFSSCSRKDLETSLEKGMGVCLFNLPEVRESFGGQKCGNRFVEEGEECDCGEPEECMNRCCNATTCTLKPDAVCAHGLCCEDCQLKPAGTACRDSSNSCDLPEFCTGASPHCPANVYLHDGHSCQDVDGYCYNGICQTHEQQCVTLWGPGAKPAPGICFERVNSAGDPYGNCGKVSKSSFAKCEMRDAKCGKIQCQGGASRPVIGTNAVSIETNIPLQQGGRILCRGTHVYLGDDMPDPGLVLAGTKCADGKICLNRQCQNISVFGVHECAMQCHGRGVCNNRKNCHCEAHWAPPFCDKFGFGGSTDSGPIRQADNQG
The assay can be described thus: ELISA, coated recombinant ADAM12.

B1: ADP3 (antibody, IgG1, V domains shown)
VH: EVKLEESGGGLVQPGGSMKLSCAASGFTFSDAWMDWVRQSPEKGLEWVAEIRGKVNNLATYYVESVKGRFTISRDDSKSSVYLQMNSLRAEDTGIYYCLGRYDATYAMDYWGQGTSVTVSS
VL: DVVMTQTPLSLPVSLGDQASISCRSSQSLVHSDGNTYLHWYLQKPGQSPKLLIYKLSNRFSGVPDRFSGSGSGTDFTLKISRVEAEDLGVYFCSQSTHVPWTFGGGTKLEIK
Take B1: the MFI in assay [1] worked out at 86.9 MFI; in assay [3], 51.8 MFI. The “OD 450nm” value is 2.31 OD450nm in assay [2], 0.17 OD450nm in assay [4] and 0.16 OD450nm in assay [5]. In addition, the binding result in assay [4] is given as “no binding (tested: 1 µg/ml)”.

B2: ADP2 (antibody, V domains shown)
VH: EVKLVESGGGLVQPGGSLSLSCAASGFSFPDYYMSWVRQPPGKALEWLGFIRDSANGYTTEYIASVKGRFTFSRDNSQSILYLQMNALRAEDSATYYCARYSRYYGMDYWGQGTSVTVSS
VL: SIVMTQTPKILLVSAGDRVTITCKASQTVNYDVAWYQQKPGQSPKPVIYFASNRYTGVPDRFTGSGFGTDFTFTISTVQAEDLAVYFCQQDYSAPWTFGGGTKLEIK
notes: also called mADP2; mouse ADP2
Consider B2, for which the results for the MFI in assay [1] and in assay [3] were 158 MFI and 58.4 MFI, respectively. Moreover, the entries for the “OD 450nm” value in assay [2], in assay [4] and in assay [5] were 2.76 OD450nm, 0.16 OD450nm and 0.14 OD450nm, respectively. Also, the binding result in assay [5] is recorded as “no binding (tested: 1 µg/ml)”.

B3: ADP13 (antibody, IgG1, V domains shown)
VH: EVQLQQSGPEMVKPGTSVKISCKASGYTFTDYYINWVKQSHGKSLEWIGDISPNIGGATYNPKFKGKAILTVDKSARTAYMELRSLTSEDSAVYCCTRGGSSYPYFYAMDYWGQGTSVTVSS
VL: DIVMSQSPSSLAVSVGEKVTMSCKSSQSLLYSSNQKKYLAWYQQKPGQSPKLLIYWASTRESGVPDRFTGSGSGTDFTLTISSVKAEDLAVYYCQQFYSYPYTFGGGTKLEINR
notes: also called mADP13; mouse ADP13
Consider B3, for which the MFI in assay [1] came to 62.2 MFI; in assay [3], 7.1 MFI. For the same molecule, the “OD 450nm” value was determined as 2.64 OD450nm in assay [2], 0.09 OD450nm in assay [4] and 0.12 OD450nm in assay [5]. Also, the binding result in assay [4] and in assay [5] was “no binding (tested: 1 µg/ml)” in each case.
